One data set addresses T1, B. subtilis Rel (Bacillus subtilis, UniProt O54408).
T1 construct: gene relA; purified; construct and tag not described
Description: […]-labelled nucleotide hydrolysis, TLC. It is filed as biochemical. The settings on record: 20 mM Tris-HCl pH 7.5, 1 mM MnCl2, 37 °C, 240 nM enzyme; labelled compound.

Data set [1] concerns Nc1nc2c(ncn2[C@@H]2O[C@H](COP(=O)(O)O)[C@@H](OP(=O)(O)OP(=O)(O)O)[C@H]2O)c(=O)[nH]1. Description: purified protein. In kind it is biochemical, Xanthomonas campestris. The settings on record: 20 mM Tris-HCl pH 7.5, 1 mM MnCl2, 37 °C, 50 nM enzyme.
Data set [2] has as its system Nc1nc2c(ncn2[C@@H]2O[C@H](COP(=O)(O)OP(=O)(O)O)[C@@H](OP(=O)(O)OP(=O)(O)O)[C@H]2O)c(=O)[nH]1. As to the kind of experiment: purified protein. In kind it is biochemical, Xanthomonas campestris. The settings on record: 20 mM Tris-HCl pH 7.5, 1 mM MnCl2, 37 °C, 50 nM enzyme.
The test system of data set [3] is Nc1nc2c(ncn2[C@@H]2O[C@H](COP(=O)(O)OP(=O)(O)OP(=O)(O)O)[C@@H](OP(=O)(O)OP(=O)(O)O)[C@H]2O)c(=O)[nH]1. As to the kind of experiment: purified protein. It is filed as biochemical, Xanthomonas campestris. To be noted: 20 mM Tris-HCl pH 7.5, 1 mM MnCl2, 37 °C, 50 nM enzyme.
Data set [4] concerns Nc1ncnc2c1ncn2[C@@H]1O[C@H](COP(=O)(O)OP(=O)(O)OP(=O)(O)O)[C@@H](OP(=O)(O)OP(=O)(O)O)[C@H]1O. As to the kind of experiment: purified protein. In kind it is biochemical, Xanthomonas campestris. The settings on record: 20 mM Tris-HCl pH 7.5, 1 mM MnCl2, 37 °C, 25 nM enzyme.
Substrate in data set [5]: NC(=O)C1=CN([C@@H]2O[C@H](COP(=O)(O)OP(=O)(O)OC[C@H]3O[C@@H](n4cnc5c(N)ncnc54)[C@H](OP(=O)(O)O)[C@@H]3O)[C@@H](O)[C@H]2O)C=CC1
Description: phosphate release, malachite green assay, Michaelis-Menten fit. In kind it is biochemical, Xanthomonas campestris. The settings on record: 20 mM Tris-HCl pH 8, 1 mM MnCl2, 37 °C, 1 μM enzyme. The text has this:
phosphate release, malachite green assay, Michaelis-Menten fit on XccSAH

By Km is commonly meant the concentration of substrate that gives half-maximal velocity. In general, Vmax refers to the top rate of the reaction or transport when substrate is in excess. The kcat is the maximal rate divided by the concentration of active sites. In general, kcat/Km refers to the second-order rate constant that governs catalysis at low substrate concentration.

T1 sequence (O54408 whole entry): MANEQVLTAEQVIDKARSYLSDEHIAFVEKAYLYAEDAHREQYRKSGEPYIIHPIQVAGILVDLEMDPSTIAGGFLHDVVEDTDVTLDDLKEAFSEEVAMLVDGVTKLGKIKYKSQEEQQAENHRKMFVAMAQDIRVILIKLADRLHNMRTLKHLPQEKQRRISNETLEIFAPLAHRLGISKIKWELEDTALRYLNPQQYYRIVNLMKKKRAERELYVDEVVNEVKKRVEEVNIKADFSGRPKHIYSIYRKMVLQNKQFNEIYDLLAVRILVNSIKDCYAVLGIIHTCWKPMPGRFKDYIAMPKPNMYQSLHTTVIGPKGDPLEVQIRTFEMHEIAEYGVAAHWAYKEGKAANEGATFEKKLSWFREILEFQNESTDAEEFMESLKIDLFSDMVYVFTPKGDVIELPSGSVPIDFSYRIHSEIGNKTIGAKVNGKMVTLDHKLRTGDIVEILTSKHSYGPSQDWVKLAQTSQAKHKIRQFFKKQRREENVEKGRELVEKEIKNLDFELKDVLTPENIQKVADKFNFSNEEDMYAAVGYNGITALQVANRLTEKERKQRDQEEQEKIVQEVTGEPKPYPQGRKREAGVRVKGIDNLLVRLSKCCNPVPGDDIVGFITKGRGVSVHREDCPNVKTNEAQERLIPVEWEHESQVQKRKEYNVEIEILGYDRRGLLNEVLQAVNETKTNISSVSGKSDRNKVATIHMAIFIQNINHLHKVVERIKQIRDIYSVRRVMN

In the case of `Nc1nc2c(ncn2[C@@H]2O[C@H](COP(=O)(O)O)[C@@H](OP(=O)(O)OP(=O)(O)O)[C@H]2O)c(=O)[nH]1` [pGpp], the “32P-labelled nucleotide hydrolysis, TLC” value on B. subtilis Rel is recorded as “We found that B. subtilis Rel could also hydrolyze pGpp to GMP”.

As to “XccSAH (Xanthomonas campestris pv. campestris str. ATCC 33913)”, the Km in data set [1] stood at 19.73 ± 4.75 µM; in data set [2], 14.13 ± 2.02 µM; in data set [3], 29.14 ± 4.41 µM; in data set [4], 45.82 ± 3.87 µM. For the same molecule, the Vmax in data set [1] stood at 4.89 µM/min; in data set [2], 21 µM/min; in data set [3], 42.9 µM/min; in data set [4], 73.1 µM/min. For the same molecule, the kcat in data set [1] was 1.63 ± 0.07 s⁻¹; in data set [2] it was 6.99 ± 0.15 s⁻¹; in data set [3] it was 14.3 ± 1.45 s⁻¹; in data set [4] it was 48.8 ± 2.99 s⁻¹. In addition, the kcat/Km is 86000 ± 18000 M⁻¹ s⁻¹ in data set [1], 500000 ± 82000 M⁻¹ s⁻¹ in data set [2], 493000 ± 25000 M⁻¹ s⁻¹ in data set [3] and 1.07e+06 ± 75000 M⁻¹ s⁻¹ in data set [4].

B1: XccSAH (Xanthomonas campestris pv. campestris str. ATCC 33913) (protein)
chain: MTALTERYAQAVDYARIAHAGQLRKGTQIPYLSHLLGVSTLVLECGGDEDQAIAGLLHDVVEDCGGGHEGSIRAQFGDAVADIVMACTDATAEDKADVDNTASARKRDWRERKQSYLAHLRKTPERALLVSGCDKLYNARTIVQDLENPDVGQEIFNVFTAGRDGTLWYYAALEEIFRTRKAATARLFSGVVARMQALADSSIDTVPAHAVA
Turning to B1, in data set [5], the Km was determined as 132.2 ± 39.09 µM, the Vmax amounted to 2.88 µM/min, the kcat is 0.048 ± 0.004 s⁻¹ and the kcat/Km is 363 ± 20 M⁻¹ s⁻¹.
